In patent US20240270821A1, “GIP/GLP1/GCG TRI-RECEPTOR AGONISTS AND USES THEREOF” (priority 2023, published 2024):
Starred links: 1 amine or outer side, 2 acyl side, 3 side chain; linkers in the order of their positions; H or OH if unused. Non-standard residues stand in square brackets, D forms with d. Groups on a side chain read outwards from the residue. No end group written: not given here. *: point of attachment. C18 diacid = O=C(O)CCCCCCCCCCCCCCCCC(=O)*; γGlu = O=C(O)[C@H](CCC(=O)[*:2])N[*:1]; 4Pal = N[C@@H](Cc1ccncc1)C(=O)O; αMeL = CC(C)C[C@](C)(N)C(=O)O; Dab = NCC[C@H](N)C(=O)O; AEEA = NCCOCCOCC(=O)O; Aib = CC(C)(N)C(=O)O

T1: human GIP receptor (human) (UniProt P48546)
T1 sequence (looked up): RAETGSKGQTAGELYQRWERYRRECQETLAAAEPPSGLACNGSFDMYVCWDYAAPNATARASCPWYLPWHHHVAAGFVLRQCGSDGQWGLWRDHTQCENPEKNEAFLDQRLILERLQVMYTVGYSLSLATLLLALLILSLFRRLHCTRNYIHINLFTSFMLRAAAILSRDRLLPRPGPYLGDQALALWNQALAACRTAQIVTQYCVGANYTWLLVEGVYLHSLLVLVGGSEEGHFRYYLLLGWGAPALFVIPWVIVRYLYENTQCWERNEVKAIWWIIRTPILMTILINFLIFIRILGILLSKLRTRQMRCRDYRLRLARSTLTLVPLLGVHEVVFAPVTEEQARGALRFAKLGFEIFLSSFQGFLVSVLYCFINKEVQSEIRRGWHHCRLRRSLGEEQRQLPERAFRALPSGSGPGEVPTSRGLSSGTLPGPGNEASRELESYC


How the values were obtained:
Assay in all cases: cell-based or functional assay
[1] = biological target: human glucagon receptor (human) (UniProt P47871)
Sequence of human glucagon receptor (human) (P47871 26-477): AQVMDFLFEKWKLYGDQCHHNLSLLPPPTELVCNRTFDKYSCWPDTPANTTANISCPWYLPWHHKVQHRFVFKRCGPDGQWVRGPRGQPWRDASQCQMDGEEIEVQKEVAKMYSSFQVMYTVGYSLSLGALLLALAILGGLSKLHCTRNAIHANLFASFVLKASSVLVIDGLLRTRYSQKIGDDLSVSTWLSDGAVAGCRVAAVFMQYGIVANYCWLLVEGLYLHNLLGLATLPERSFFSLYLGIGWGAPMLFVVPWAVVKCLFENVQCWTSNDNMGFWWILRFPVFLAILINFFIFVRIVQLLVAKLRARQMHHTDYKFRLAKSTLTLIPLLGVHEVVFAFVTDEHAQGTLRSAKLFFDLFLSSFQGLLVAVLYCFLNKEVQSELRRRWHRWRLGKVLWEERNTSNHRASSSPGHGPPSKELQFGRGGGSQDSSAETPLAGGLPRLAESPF

[2] = biological target: hGLP-1R (Homo sapiens, UniProt P43220)
Sequence of hGLP-1R (P43220 24-463): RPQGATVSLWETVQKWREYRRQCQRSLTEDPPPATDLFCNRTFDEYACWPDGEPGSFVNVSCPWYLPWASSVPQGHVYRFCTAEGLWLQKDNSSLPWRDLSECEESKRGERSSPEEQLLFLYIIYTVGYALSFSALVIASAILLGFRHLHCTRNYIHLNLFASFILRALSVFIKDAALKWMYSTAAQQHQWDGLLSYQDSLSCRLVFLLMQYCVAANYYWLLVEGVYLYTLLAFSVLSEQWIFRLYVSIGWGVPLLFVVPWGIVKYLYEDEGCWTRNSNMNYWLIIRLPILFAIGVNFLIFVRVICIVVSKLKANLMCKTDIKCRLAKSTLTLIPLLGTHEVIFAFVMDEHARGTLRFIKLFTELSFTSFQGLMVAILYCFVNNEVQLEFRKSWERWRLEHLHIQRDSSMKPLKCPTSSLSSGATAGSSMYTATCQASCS

[3] = biological target: T1, human GIP receptor (human)
[4] = biological target: human GLP-1R (SNAP-GLP-1R expressed in HEK293 cells) (human) (UniProt P43220)
Sequence of human GLP-1R (SNAP-GLP-1R expressed in HEK293 cells) (human) (P43220 24-463): as above

| Binder | Relative cAMP EC50 [1] | cAMP Rel EC50, nM (1% HSA) [1] | Relative cAMP EC50 [2] | cAMP Rel EC50, nM (1% HSA) [2] | Relative cAMP EC50 [3] | cAMP Rel EC50, nM (1% HSA) [3] | GLP1R Internalization EC50 [4] | Internalization % TOP [4] | Relative cAMP EC50, nM (0.1% casein) [1] | Relative cAMP EC50, nM (0.1% casein) [2] | Relative cAMP EC50, nM (0.1% casein) [3] |
| --- | --- | --- | --- | --- | --- | --- | --- | --- | --- | --- | --- |
| YXQGTFTSDXSXXLDKKAQXAFIEYLIEXGESSGAPPPSGS (synthetic construct; SITE 2: note = 2-Aminoisobutyric Acid; SITE 10: note = 3-(4-Pyridyl)-L-alanine; SITE 12: note = L-ornithine; SITE 13: note = alpha-methyl-leucine; SITE 17: note = Lysine is chemically modified through conjugation of the epsilon-amino group of the Lysine side chain with (2-[2-(2-) [Example 223] | 1.57 nM | 373 nM | 2.83 nM | 627 nM | 0.215 nM | 37.2 nM | 45.8 nM | 59.3% | – | – | – |
| YXQGTFTSDFSRXLDKKAQXAFIEYLIEXGESSGAPPPSGS (synthetic construct; SITE 2: note = 2-Aminoisobutyric Acid; SITE 13: note = alpha-methyl-leucine; SITE 17: note = Lysine is chemically modified through conjugation of the epsilon-amino group of the Lysine side chain with (2-[2-(2-Amino-ethoxy)-ethoxy]-acetyl)-(gamma-Glu)-CO-(CH2) 16-CO2H; SITE 20: n) [Example 230] | 1.61 nM | – | 0.937 nM | – | 0.0909 nM | – | 34.4 nM | 31.2% | – | – | – |
| YXQGTFTSDFSXXLDKKAQXAFIEYLLEXGHSSGAPPPSGE (synthetic construct; SITE 2: note = 2-Aminoisobutyric Acid; SITE 12: note = L-ornithine; SITE 13: note = alpha-methyl-leucine; SITE 17: note = Lysine is chemically modified through conjugation of the epsilon-amino group of the Lysine side chain with (2-[2-(2-Amino-ethoxy)-ethoxy]-acetyl)2-(gamma-Glu)) [Example 186] | – | 1280 nM | – | 690 nM | – | 18 nM | 124 nM | 41.1% | 4.67 nM | 5.26 nM | 0.107 nM |
| YXQGTFTSDFSXXLDKKAQXAFIEYLLEAGPSSGAPPPSGT (not fully specified; synthetic construct; SITE 2: note = 2-Aminoisobutyric Acid; SITE 12: note = L-ornithine; SITE 13: note = alpha-methyl-leucine; SITE 17: note = Lysine is chemically modified through conjugation of the epsilon-amino group of the Lysine side chain with (gamma-Glu)3-CO-(CH2)16-CO2H; SITE 20: note = 2-Am) [Example 205] | 8.98 nM | 397 nM | 2.71 nM | 234 nM | 0.16 nM | 24.4 nM | 49.4 nM | 67.7% | – | – | – |
| YXQGTFTSDFSRXLDKKAQXAFIEYLIEXGESSGAPPPSGE (synthetic construct; SITE 2: note = 2-Aminoisobutyric Acid; SITE 13: note = alpha-methyl-leucine; SITE 17: note = Lysine is chemically modified through conjugation of the epsilon-amino group of the Lysine side chain with (2-[2-(2-Amino-ethoxy)-ethoxy]-acetyl)-(gamma-Glu)-CO-(CH2) 16-CO2H; SITE 20: n) [Example 231] | 2.12 nM | 443 nM | 1.3 nM | 223 nM | 0.119 nM | 27.4 nM | 36.1 nM | 27.7% | – | – | – |
| YXQGTFTSDFSXXLDKKAQXAFIEYLLEXGXSSGAPPPSGE (synthetic construct; SITE 2: note = 2-Aminoisobutyric Acid; SITE 12: note = L-ornithine; SITE 13: note = alpha-methyl-leucine; SITE 17: note = Lysine is chemically modified through conjugation of the epsilon-amino group of the Lysine side chain with (2-[2-(2-Amino-ethoxy)-ethoxy]-acetyl)2-(gamma-Glu)) [Example 189] | – | 853 nM | – | 423 nM | – | 22.2 nM | 103 nM | 45.8% | 6.28 nM | 4.46 nM | 0.0695 nM |
| YXQGTFTSDFSXXLDKKAQXAFIEYLLEAGPSSGAPPPSGT (not fully specified; synthetic construct; SITE 2: note = 2-Aminoisobutyric Acid; SITE 12: note = L-ornithine; SITE 13: note = alpha-methyl-leucine; SITE 17: note = Lysine is chemically modified through conjugation of the epsilon-amino group of the Lysine side chain with (gamma-Glu)2-CO-(CH2)16-CO2H; SITE 20: note = 2-Am) [Example 204] | 6.92 nM | 572 nM | 2.34 nM | 306 nM | 0.181 nM | 16.7 nM | 66.4 nM | 45.5% | – | – | – |
| YXQGTFTSDXSQXLDKKAQXAFIEYLIEXGESSGAPPPSGS (synthetic construct; SITE 2: note = 2-Aminoisobutyric Acid; SITE 10: note = 3-(4-Pyridyl)-L-alanine; SITE 13: note = alpha-methyl-leucine; SITE 17: note = Lysine is chemically modified through conjugation of the epsilon-amino group of the Lysine side chain with (2-[2-(2-Amino-ethoxy)-ethoxy]-acetyl)) [Example 226] | 3.08 nM | 763 nM | 1.97 nM | 354 nM | 0.127 nM | 32.2 nM | 29.1 nM | 59.3% | – | – | – |
| YXQGTFTSDXSRXLDKKAQXAFIEYLIEXGESSGAPPPSGS (synthetic construct; SITE 2: note = 2-Aminoisobutyric Acid; SITE 10: note = 3-(4-Pyridyl)-L-alanine; SITE 13: note = alpha-methyl-leucine; SITE 17: note = Lysine is chemically modified through conjugation of the epsilon-amino group of the Lysine side chain with (2-[2-(2-Amino-ethoxy)-ethoxy]-acetyl)) [Example 224] | 1.91 nM | 452 nM | 1.89 nM | 333 nM | 0.114 nM | 21.5 nM | 32.2 nM | 61.9% | – | – | – |
| YXQGTFTSDFSXXLDKKAQXAFIEYLLEAGPSSGAPPPSGS (synthetic construct; SITE 2: note = 2-Aminoisobutyric Acid; SITE 12: note = L-ornithine; SITE 13: note = alpha-methyl-leucine; SITE 17: note = Lysine is chemically modified through conjugation of the epsilon-amino group of the Lysine side chain with (2-[2-(2-Amino-ethoxy)-ethoxy]-acetyl)-(gamma-Glu)) [Example 209] | 3.08 nM | – | 1.78 nM | – | 0.129 nM | – | 83.1 nM | 41.2% | – | – | – |
| YXQGTFTSDFSQXLDKKAQXAFIEYLIEXGESSGAPPPSGS (synthetic construct; SITE 2: note = 2-Aminoisobutyric Acid; SITE 13: note = alpha-methyl-leucine; SITE 17: note = Lysine is chemically modified through conjugation of the epsilon-amino group of the Lysine side chain with (2-[2-(2-Amino-ethoxy)-ethoxy]-acetyl)-(gamma-Glu)-CO-(CH2) 16-CO2H; SITE 20: n) [Example 232] | 2.42 nM | 482 nM | 0.819 nM | 226 nM | 0.102 nM | 24.6 nM | 44.7 nM | 45.5% | – | – | – |
| Y[Aib]QGTFTSD[4Pal]S[Dab][αMeL]LDKK([AEEA-γGlu-C18 diacid])AQ[Aib]AFIEYLIE[Aib]GESSGAPPPSGS-NH2 [Example 188] | – | 2920 nM | – | 436 nM | – | 43.8 nM | 44.7 nM | 40.2% | 10.8 nM | 3.43 nM | 0.193 nM |
